Measurements published in ChEMBL document CHEMBL4627406, “Amino Acids Bearing Aromatic or Heteroaromatic Substituents as a New Class of Ligands for the Lysosomal Sialic Acid Transporter Sialin” (J Med Chem, 2020).

Tests used:
[1] = compound: CC(C)C[C@H](NC(=O)OCC1c2ccccc2-c2ccccc21)C(=O)O; test: Non-competitive inhibition of human recombinant-Sialin expressed in HEK293 cells assessed as reduction in [3H]Neu5Ac uptake by measuring Km level at 10 uM incubated for 15 mins by liquid scintillation counting method (reference value: 1.6 +/- 0.3 mM); type: cell-based
[2] = compound: O=C(N[C@@H](CSCc1cc(=O)oc2cc(O)ccc12)C(=O)O)OCC1c2ccccc2-c2ccccc21; test: Non-competitive inhibition of human recombinant-Sialin expressed in HEK293 cells assessed as reduction in [3H]Neu5Ac uptake by measuring Km level at 3 uM incubated for 15 mins by liquid scintillation counting method (reference value: 1.4 +/- 0.5 mM)

B1: Sialin (Homo sapiens), Q9NRA2 (protein)
chain: MRSPVRDLARNDGEESTDRTPLLPGAPRAEAAPVCCSARYNLAILAFFGFFIVYALRVNLSVALVDMVDSNTTLEDNRTSKACPEHSAPIKVHHNQTGKKYQWDAETQGWILGSFFYGYIITQIPGGYVASKIGGKMLLGFGILGTAVLTLFTPIAADLGVGPLIVLRALEGLGEGVTFPAMHAMWSSWAPPLERSKLLSISYAGAQLGTVISLPLSGIICYYMNWTYVFYFFGTIGIFWFLLWIWLVSDTPQKHKRISHYEKEYILSSLRNQLSSQKSVPWVPILKSLPLWAIVVAHFSYNWTFYTLLTLLPTYMKEILRFNVQENGFLSSLPYLGSWLCMILSGQAADNLRAKWNFSTLCVRRIFSLIGMIGPAVFLVAAGFIGCDYSLAVAFLTISTTLGGFCSSGFSINHLDIAPSYAGILLGITNTFATIPGMVGPVIAKSLTPDNTVGEWQTVFYIAAAINVFGAIFFTLFAKGEVQNWALNDHHGHRH
- Km [1]: 1300 µM
- Km [2]: 1700 µM
